From publication PMC4333385 come the findings set out here.

The test system of the series is Nc1ncnc2c1ncn2[C@@H]1O[C@H](COP(=O)(O)OP(=O)(O)OP(=O)(O)O)[C@@H](O)[C@H]1O. Briefly: steady-state Pi release, MDCC-PBP stopped-flow, Hill fit. The series is classed as biochemical, Escherichia coli. The settings on record: DNA-free RecQ, SF50 buffer pH 7.5, 5 mM MgCl2, 50 mM NaCl, 25 °C, Hill coefficient 1.3. The text has this: steady-state Pi release, MDCC-PBP stopped-flow, Hill fit on E. coli RecQ helicase

For “E. coli RecQ helicase (Escherichia coli K-12)”, the K0.5 came to 28 ± 2 µM and the turnover number (kcat) was found to be 0.53 ± 0.05 s⁻¹.
